Test: soluble on expression in E. coli; label from the status in PepcDB or PDB records

Sequence	soluble on expression in E. coli
MAHHHHHHMVMYDPAAPNNYRDVKVMWWKRAREDERKNDISRSLAAAAEAGSSPFDMPDMMRMAPRDELAYDILGGSGDTMSLHLSAEELHQRRVRQSAALGITTAMNLEREELEAAHKARVAAGMDRRGRIGQKLGKLMSVAATRENATKTNTTSDHVGDGINTSAGEMTPATTMATSTTTSLPGITAPLVFQRSELAAGGYVVREDVGALEKRKTHYGKPSSTILIRFVRDGPPVEVFDDTSNKNVGSGTLRNAFLENIQDLCGQCGVVRSLRYMVLDDGKRAALRARLENEREEVSAASADVETRLAREMIRVLVRFDTVANAFKALEMLQQRHGSNWDVCFFSTQLFDVGALGPAEGESLCCA	not soluble
MGSDKIHHHHHHMEINVGAVISANRKQKGITQQALADFVGVSKASVSKWETGQSYPDITLLPILAAYFDVSIDKLMAYDAQLSSTEIRRIYTSMKQAFETQPGDAVLKSIRNLIRRYYACYPFLLQMGLLILNHYDLLPGTSQTAKVTEYVNEARLLFVRVRQNSQKAQLTAKAVELEGYSLLLLQRPDDVLALLGEYVPEQLPADSLIAGAFQQKGDFRRAIATSQSGLMQDLSIIMSQLTNYMTLLKDDPNRLAATYQRGQAIAKAFDLATLNPAVWLNFQLAALNGFAQQDKTDEAVALLQEFTHVLTATKMPLTLHGDAYFDAIEPWLEQLDLGSQSPRVSGQAKQVLADFVLQNPALAKIRTLPVVQPLLAELKQVSGHR	not soluble
MLANFSQKAQETLVGELEELVSTTNLKGVITYCNDAFCRVAEYTHEELVGQNHNIVRHSDMPKAAFGDMWARLKEGKAWRGMVKNSTKSGGYYWVDAYVTPIYEKNQVVGYQSVRVKPKREWVDIAAKAYKGMLAAEKAGRTWSLKINETVRYAILLGALTAPAVAYALSVEGPLAWLASALPASVLALLFRQELIDTPQQLKKLQKQYDSVSRLIYSGNSAFSIADFHIKMLSARIRTVLGRMTDSALPLQNCAEELSQTTSEVSAALNQQNSDIRRVRDATQEVESSANSVSSSTNDAHMLIDDTLKSCMMAKETIDQTHTNLAQLSLQA	not soluble
MGFSKKSQFEGGLESDGKKWVIAGISIRASLKPVKTKLRAPPEIVTEVEEDCYNEEEECSTTPTAKETKIPELLECPPAPRKRRPALKCRSNVVREFFTPPSDLETVFLRRR	not soluble
GMTDQSVRIIEAALRLYMKKPPHEVSIEEIAREAKVSKSLIFYHFESKQKLLEEAVMHAFRKMMEEFNPRSVEEVVDYGIGFIAERREFIEFMMYALSQVRIEELERMFGEALEKVASLFEGCRHPRETAIALMAMLDGLSIYSLYFDLGKLEKYREIAMEFVESRRVRA	soluble
MDPDKKKMFEVIIKKIQQQSSALEEAMKAQKPKVDCSMSREMCSPSGLIIIMERIYEKEFLADMARLNVLPVDVLTRVSAQDSIATEEAKGRLLNESRDVLSEWLDHNHGKDARDHSVFDDLAKRRIFYLAGPFLQSQWHLECSVISSSAVPAARNIVWNDHLRIRRDAAVAAAAAVNNTAGLADMDQGTRIELPKSKHQWSHQDASRHIKFVKSSVGKFFKKKIIQKFSTGGSQNLFFFYTSVCVQDIALNCTSPFWEINNEYNPVIKFSKIRFPADISVINGFRMPFLKM	not soluble
AVSGLYSSSDDVIELTPSNFNREVIQSDGLWLVEFYAPWCGHCQRLTPEWKKAATALKDVVKVGAVNADKHQSLGGQYGVQGFPTIKIFGANKNKPEDYQGGRTGEAIVDAALSALR	soluble
MSDLFIHPELRFHSYGTWLRRRFGCNVSKVNVDGGFTCPNRDGSRGTGGCIYCDNASFSPGGTVPDKSIELQMAEGMAYHRQRLGSEKFIIYFQKFTNTYAPAARLRDLYTRALSHPDVVGISVGTRPDALADEALELLADLAQEHYVCIELGLQSMDDAILERINRGHTLDEYLRTVDRIAGRGIALCTHLIYGFPGETREGFLKTAHLLAGLPVDSVKLHQLHAVKGTRLAELYHRREFVPITLAEYVTTACDFLELLPPRI	not soluble
MPQFASKAEEKNYYERQASLAEFLTWYHQQELPEYEKPSLTVDMVLLCYNKEADQLKVLLIQRKGHPFRNSWALPGGFVNRNESTEDSVLRETKEETGVVISQENIEQLHSFSRPDRDPRGWVVTVSYLAFIGEEPLIAGDDAKEVHWFNLERHGQHITLSHEDVEITLDLKTAASLGKDTLAFDHSEIIIKAFNRVVDKMEHEPQVLQVLGKDFTITEARKVFAKFLGVDYRSIDHSNFKKAMTQYFEELGERPVGIGRPSKIYQLKTTTGF	soluble
SQIPLCANLVPVPITNATLDRITGKWFYIASAFRNEEYNKSVQEIQATFFYFTPNKTEDTIFLREYQTRQNQCFYNSSYLNVQRENGTVSRYEGGREHVAHLLFLRDTKTLMFGSYLDDEKNWGLSFYADKPETTKEQLGEFYEALDCLCIPRSDVMYTDWKKDKCEPLEKQHEKERKQEEGES	soluble
MLLPKFLLLTAFLEFASAICADSNDQEIKGFCFKFVTQQLTFTDARTWCHLKNPVGPSYLAYVPSQDTSTYLAFYARSAFGADAEVFWIGLSRNASSGSLSWDNGLPVAYTNFGTNVGKNYFTESISNTKWDTLGDGDLNFFVCSYAPIVNSTTMTSITGTTKRMTTTTIEKLNCKPGDHQIILFAYSNDLAPSVVTDALYYSSLSSQSVTYAVSRFDLRQPEDIQYFSDYSLFSSYVSSHLPDYTLGFEEATTGSNVFEVINKFYDNTQATCGSNLIILSKRYPNTADVSNIVLKVRKSQGMVNFLASHAPSGGTVSQGLYDLCSLTNGIYSIGRDSSFSNMIESMPIRYRYAIYADNPKVSGQGSQTLASMSVPADGTYYLSMMLQNHTPVNTTQSVLLHWYSPYSRYSSTASVHGLSFETNNNGANSEILDAAIYNVTLDFVYFTSETMQIRFYGTSTDHWLPYAD	not soluble
MHKDTHCAVVIDCWMNKLGEVNFENRPSRYPAFVEDVRKICGTKEIVFGLEDTRGFGRNLAAYLVGRKFEVKHVNPAYTSAVRLANPIIYKDDSYDAYCVARVLRDMVDTLKDAKHEDIFWTIRQMVKRRDLIVKSNVMNKNQLHSQLAYSYPSYRKFFAMIDSKSALCFWENYPSPEYIWNTIPEEIYQTIKPVHQALKIQRIHEIISMIERDGDTRKDYQPERDFIVRNIVKDIRHNKELIAEIDDELRKLIPLTGYKLHTMPGIDLVTEAQIISEIGDINRFPDSDKLARFMGLAPVQFSSAGKGKDQRCRNGNRALNAIFHFLAIQMVAVSASGKPRHPVFREYFEQKVKEGKNKPQALVCVARRLVRIIYGMMKTRTEYRPYEKVDDKN	soluble
MSDIPAGDYEKGKKVYKQRCLQCHVVDSTATKTGPTLHGVIGRTSGTVSGFDYSAANKNKGVVWTRETLFEYLLNPKKYIPGTKMVFAGLKKADERADLIKYIEVESAKSL	not soluble
MKLIWSEESWDDYLYWQETDKRIVKKINEIIKDTRRTPFEGKGKPEPLKHNLSGFWSRRITEEHRLVYAVTDDSLLIAACRYHYLEHHHHHH	soluble
KVWWTLPYGPHEDEKNLTLEDWRDRVLDSTREAVAIRQRAAVDVGVLLSGGVDSSMLVGLLREVGVEDLSTFSIGFQDAGGERGDEFQYSDLIAKHYGTRHHQLRIQESEIIEQLPAAFRAMSEPMVSHDCIAFYLLSREVAKHCKVVQSGQGADELFAGYHWYPQVDGASDPVAAYRYAFVDRSYAEYADTVQPKWRTANDAAGDFVRDHFAQPGASAAVDKALRLDSTVMLVDDPVKRVDNMTMAWGLEARTPFLDYRLVELSARIPGKFKLPDGGKQVLKEAARLVIPSEVIDRKKGYFPVPGLKHLQGDTLNWVRELLTDPSQDRGLFNPTMVDKLLTNPEGQLTPLRGSKLWQLAALNLWLSEQ	not soluble
MNPIPADVAAVVLAGGVGRRFGRPKALAMMDGISLVERAVEALSSGPADVYVSVSPALERPVARLVGSRRVIVDLVEQAPCEGPLRAFLTAASTLVSYSNLVFMPVDAPWASWRDLEPIYNASKAIGSGASYFSGEGIVHPLFLAARRKSLLTAAWTACWGRAEKRASAILRSLDPLILLGSSETRSPLALATVNTPQDLWRPSRVPAPAEGYILLEGHSILYKISSTMNSYYSALALEAEYKLYRRLGLLRLASHVLKDAAALNVSTSLIQQESMAGGLGLEHHHHHH	not soluble
SNAMATNLIGLDTTQSQKLANALNNLLANYQVFYMNTRGYHWNIQGKEFFELHAKFEEIYTDLQLKIDELAERILTLSARPMHSFSGYLKAAQIKEHTDSIDGRSSMQGLVDGFSILLHQQRDILELAGETGDEGTSALMSDYIREQEKLVWMLNAWLK	soluble
MGSDKIHHHHHHDGKFTLGAGVGVVEHPYKQYDADVYPVPVISYESENFWFHGLGGGYYLWNDTNDKLSITAYWSPMYFKPGDSDSEQMRRLDKRKSTVMAGLSYVHNTPYGFLRTTIAGDTLDNSNGINWDLAWLYRYTNGNLTLTPGIGVEWNSDNQNEYYYGVSRHESRRSGMRSYDPDSSWNPYLELSANYRFLGDWSVYGVARYTRLSDEITDSPMVDKSWSGLISTGITYTF	not soluble
ANMPPGSVEQVAAKVVPSVVMLETDLGRQSEEGSGIILSAEGLILTNNHVIAAAAKPPLGSPPPKTTVTFSDGRTAPFTVVGADPTSDIAVVRVQGVSGLTPISLGSSSDLRVGQPVLAIGSPLGLEGTVTTGIVSALNRPVSTTGEAGNQNTVLDAIQTDAAINPGNSGGALVNMNAQLVGVNSAIATLGADSADAQSGSIGLGFAIPVDQAKRIADELISTGKASHASLGVQVTNDKDTLGAKIVEVVAGGAAANAGVPKGVVVTKVDDRPINSADALVAAVRSKAPGATVALTFQDPSGGSRTVQVTLGKAEQLEHHHHHH	soluble
MCSHYQALKDQERMRKYFAAHPSAEVPADMWPRYMGAFIRRPLEWDSGDEAVPEREAATGRWGMIPPGTRPEKLAEASKKNTSNARSETAHQLWTFRNAWAKAQHCIIPADAIYEPDWRSGKAVPTRFTRADGAPLGIAGLWDRYRNAAGEWIDSYTMLTINADDDPLFRDYHQAGKEKRMVVILPDGAYGDWLTAPATDTRDFLLPYPADRLVAAAVKLEHHHHHH	soluble
MSDDARFQQLNCWLDSCLPELFVAEGWGEVPPAELIPASSDASFRRYFRWQGGDRSLVVMDAPPPQEDCRPFVKVAGLLAGAGVHVPRILAQDLENGFLLLSDLGRQTYLDVLHPGNADELFEPALDALIAFQKVDVAGVLPAYDEAVLRRELQLFPDWYLARHLGVELEGETLARWKRICDLLVRSALEQPRVFVHRDYMPRNLMLSEPNPGVLDFQDALHGPVTYDVTCLYKDAFVSWPEPRVHAALNRYWKKATWAGIPLPPSFEDFLRASDLMGVQRHLKVIGIFARICHRDGKPRYLGDVPRFFRYLETAVARRPELAELGELLASLPQGAEA	not soluble
MDEIPADIRNEIIYYYRLSRKVLLGLYNKSIIFVLPSIVEGMPSPPLEAMACGCAVVVTDNGGVNEYIKDGLNGIVCPVRDSYCLYQKVILLINNKALREQMIQDGLETAKEFSYDNMNKNFIRLIEEVQRRKSLEHHHHHH	not soluble

Source: the DeepSol protein solubility set
